Molecular target: GLuc1-ALIX (UniProt Q8WUM4)
Test: protein-fragment complementation assay (split Gaussia luciferase, GLuc2 bait / GLuc1 prey)
Details: parent: est. 7.4; read off a plot

GLuc1-ALIX, sequence (Q8WUM4 whole entry, the tested form may be a part): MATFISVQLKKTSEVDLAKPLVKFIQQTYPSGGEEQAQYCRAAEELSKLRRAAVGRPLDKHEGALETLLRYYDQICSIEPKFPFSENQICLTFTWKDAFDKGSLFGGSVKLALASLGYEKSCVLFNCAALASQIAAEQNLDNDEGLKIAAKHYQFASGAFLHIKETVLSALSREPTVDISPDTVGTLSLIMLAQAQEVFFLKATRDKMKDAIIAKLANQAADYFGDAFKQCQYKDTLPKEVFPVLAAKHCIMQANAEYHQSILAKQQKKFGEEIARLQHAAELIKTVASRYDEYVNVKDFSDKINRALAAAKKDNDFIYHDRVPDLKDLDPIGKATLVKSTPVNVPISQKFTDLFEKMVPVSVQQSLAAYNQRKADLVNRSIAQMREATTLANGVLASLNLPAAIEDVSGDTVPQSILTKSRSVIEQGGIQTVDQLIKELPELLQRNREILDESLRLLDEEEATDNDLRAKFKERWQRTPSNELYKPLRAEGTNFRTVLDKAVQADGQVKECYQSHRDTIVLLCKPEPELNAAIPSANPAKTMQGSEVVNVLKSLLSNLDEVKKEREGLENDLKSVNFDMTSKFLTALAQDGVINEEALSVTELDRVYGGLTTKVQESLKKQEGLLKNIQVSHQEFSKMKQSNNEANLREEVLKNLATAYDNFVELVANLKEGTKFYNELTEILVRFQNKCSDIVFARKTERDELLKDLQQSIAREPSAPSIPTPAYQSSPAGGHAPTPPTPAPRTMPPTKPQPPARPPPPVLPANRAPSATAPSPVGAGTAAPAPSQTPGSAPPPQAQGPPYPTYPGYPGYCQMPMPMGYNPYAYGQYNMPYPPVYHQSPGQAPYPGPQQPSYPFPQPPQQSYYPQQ

GLuc2-pX Y800A; K801A; E802A; L803A
response (Log2 normalized LU): 1.5
